According to US20220112276A1 (Janssen / Centocor, published 2022):
Numbering of substitutions follows the chain as printed.

B1: 01E03R3 VHH Mono-Fc (Fc fusion)
chain: QVQLVESGGGLVQTGGSLRLSCAASGRTFSVYRVGWFRQAPGKEREFVAAVIWSGASTYKYAADSVKGRFTISRDNAENTVYLQMNSLKPEDTAVYYCAADPLGLPGPDVRVEGGYRHWGQGTLVTVSSSPAPELLGGPSVFLFPPKPKDTLMISRTPEVTCVVVDVSHEDPEVKFNWYVDGVEVHNAKTKPREEQYNSTYRVVSVLTVLHQDWLNGKEYKCKVSNKALPAPIEKTISKAKGQPREPQVYTKPPSREEMTKNQVSLSCLVKGFYPSDIAVEWESNGQPENNYKTTVPVLDSDGSFRLASYLTVDKSRWQQGNVFSCSVMHEALHNHYTQKSLSLSPGK
B2: 01B12R2 VHH Mono-Fc (Fc fusion)
chain: EVQLVESGGGLVQAGGSLRLSCAASGRTFSSGIMGWFRQAPGKEREFVAAIEWSGGNTYKYYAESVKGRFAISRDNAKTTAYLQMGSLNPEDTALYYCAADESPSRYIDLRRPAPYHYWGQGTLVTVSSSPAPELLGGPSVFLFPPKPKDTLMISRTPEVTCVVVDVSHEDPEVKFNWYVDGVEVHNAKTKPREEQYNSTYRVVSVLTVLHQDWLNGKEYKCKVSNKALPAPIEKTISKAKGQPREPQVYTKPPSREEMTKNQVSLSCLVKGFYPSDIAVEWESNGQPENNYKTTVPVLDSDGSFRLASYLTVDKSRWQQGNVFSCSVMHEALHNHYTQKSLSLSPGK
B3: 01G09R3LS VHH Mono-Fc (Fc fusion)
chain: EVQLVESGGGLVQAGDSLRLSCAASGRTFPTYAMGWFRQAPGKEREFVATIRWSGSTQYKYYADFVKGRFTISRDNAKNTVYLQMDSLKPEDTAVYYCAATTLLTDPRALNAYAYWGQGTQVTVSSSPAPELLGGPSVFLFPPKPKDTLMISRTPEVTCVVVDVSHEDPEVKFNWYVDGVEVHNAKTKPREEQYNSTYRVVSVLTVLHQDWLNGKEYKCKVSNKALPAPIEKTISKAKGQPREPQVYTKPPSREEMTKNQVSLSCLVKGFYPSDIAVEWESNGQPENNYKTTVPVLDSDGSFRLASYLTVDKSRWQQGNVFSCSVMHEALHNHYTQKSLSLSPGK
B4: 01A07R3LS VHH Mono-Fc (Fc fusion)
chain: B3 chain with E1Q, T105G, A112E
B5: 01B08R2 VHH Mono-Fc (Fc fusion)
chain: EVQLVESGGRLVQAGGSLRLSCAASGLTRSDYAMGWFRQAPGKEREFVATLKWSEGSRFMYRAEDVKGRFTISSGAAKTTVWLDMDALNPEDTAVYYCAAGFNVGFVRRASEYNFWGQGTLVTVSSSPAPELLGGPSVFLFPPKPKDTLMISRTPEVTCVVVDVSHEDPEVKFNWYVDGVEVHNAKTKPREEQYNSTYRVVSVLTVLHQDWLNGKEYKCKVSNKALPAPIEKTISKAKGQPREPQVYTKPPSREEMTKNQVSLSCLVKGFYPSDIAVEWESNGQPENNYKTTVPVLDSDGSFRLASYLTVDKSRWQQGNVFSCSVMHEALHNHYTQKSLSLSPGK
B6: 01A06R3LS VHH Mono-Fc (Fc fusion)
chain: EVQLVESGGGVVQAEDSLRLSCAASGLPFSSSRMGWFRQAPGKEREFVAAIGWSGRSTYKYYADSVKGRFTVSGDNAKKTLDLQMKDLKPEDTAVYYCAAHPDYYGDPRTSGAYRYWGQGTQVTVSSSPAPELLGGPSVFLFPPKPKDTLMISRTPEVTCVVVDVSHEDPEVKFNWYVDGVEVHNAKTKPREEQYNSTYRVVSVLTVLHQDWLNGKEYKCKVSNKALPAPIEKTISKAKGQPREPQVYTKPPSREEMTKNQVSLSCLVKGFYPSDIAVEWESNGQPENNYKTTVPVLDSDGSFRLASYLTVDKSRWQQGNVFSCSVMHEALHNHYTQKSLSLSPGK
B7: 01B07R3L VHH Mono-Fc (Fc fusion)
chain: B6 chain with A40V, K60R, A63D, K79N, D87G, H101D, D103N, P108V, A113T, R115Q
B8: 02B12R3 VHH Mono-Fc (Fc fusion)
chain: QVQLVESGGGWVQTGGSLRLSCAASGRTVSSYYMGWFRQTPGKEREFVAAISWVGSSTYKYYTDSAKGRFTISRDNAKNTVYLQMNSLKPEDTAVYYCAARPRVGDPRSRYDDDNWGQGTQVTVSSSPAPELLGGPSVFLFPPKPKDTLMISRTPEVTCVVVDVSHEDPEVKFNWYVDGVEVHNAKTKPREEQYNSTYRVVSVLTVLHQDWLNGKEYKCKVSNKALPAPIEKTISKAKGQPREPQVYTKPPSREEMTKNQVSLSCLVKGFYPSDIAVEWESNGQPENNYKTTVPVLDSDGSFRLASYLTVDKSRWQQGNVFSCSVMHEALHNHYTQKSLSLSPGK
B9: 01A09R3L VHH Mono-Fc (Fc fusion)
chain: EVQLVESGGGVVQAEDSLRLSCAASGLSFSLSRMGWFRQAPGKEREFVATIEWSGRSTYKYYDDSVKGRFAVSGDNTKNTMNLQMKGLNLEDTGVYYCAANPNNYGDPRTPGAYQYWGQGTQVTVSSSPAPELLGGPSVFLFPPKPKDTLMISRTPEVTCVVVDVSHEDPEVKFNWYVDGVEVHNAKTKPREEQYNSTYRVVSVLTVLHQDWLNGKEYKCKVSNKALPAPIEKTISKAKGQPREPQVYTKPPSREEMTKNQVSLSCLVKGFYPSDIAVEWESNGQPENNYKTTVPVLDSDGSFRLASYLTVDKSRWQQGNVFSCSVMHEALHNHYTQKSLSLSPGK
B10: 01F04R2LS VHH Mono-Fc (Fc fusion)
chain: EVQLVESGGGLVQTGGSLRLSCAASGRTFSSYAMGWFRQAPGKEPERDFVAALRWSNDRTYYKYYADSVKGRFTISRDNAKNTVYLQMNTLKPEDTAVYYCAGGNYFSDPRVDKEYNYWGQGTQVTVSSSPAPELLGGPSVFLFPPKPKDTLMISRTPEVTCVVVDVSHEDPEVKFNWYVDGVEVHNAKTKPREEQYNSTYRVVSVLTVLHQDWLNGKEYKCKVSNKALPAPIEKTISKAKGQPREPQVYTKPPSREEMTKNQVSLSCLVKGFYPSDIAVEWESNGQPENNYKTTVPVLDSDGSFRLASYLTVDKSRWQQGNVFSCSVMHEALHNHYTQKSLSLSPGK
B11: 01D05R2LS VHH Mono-Fc (Fc fusion)
chain: EVQLVESGGGLVQTGGSLRLSCAASGRTFSPYAMGWFRQAPGKEREFVAAIRWSGATTYKYVGDSVQGRFTISRDAAGNTVYLQMNSVKPEDTAVYYCAADRVPKDISIDPRNPKDWDYWGKGTLVTVSSSPAPELLGGPSVFLFPPKPKDTLMISRTPEVTCVVVDVSHEDPEVKFNWYVDGVEVHNAKTKPREEQYNSTYRVVSVLTVLHQDWLNGKEYKCKVSNKALPAPIEKTISKAKGQPREPQVYTKPPSREEMTKNQVSLSCLVKGFYPSDIAVEWESNGQPENNYKTTVPVLDSDGSFRLASYLTVDKSRWQQGNVFSCSVMHEALHNHYTQKSLSLSPGK
B12: 01H01R2LS VHH Mono-Fc (Fc fusion)
chain: B11 chain with D64G, L125Q
B13: 01B06R2LS VHH Mono-Fc (Fc fusion)
chain: B11 chain with E1Q

target: T1, human pIgR extracellular domain (ECD) (human, UniProt P01833 19-638); test: SPR, VHH captured by anti-Fc, ECD analyte
T1 construct: Bought from R&D Systems (Cat 2717-PG-050); also called hpIgR ECD
Summary of the method: (§1)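 Anti-human Fc surface captured VHH at 0.5 ug/ml (~200-300 RU); running buffer HBSP with 100 ug/ml BSA, 30 μL/min. Single-cycle kinetics with ECD injected low to high from 30 nM in 3-fold dilutions, dissociation 30 min. Double-referenced data globally fit to 1:1 Langmuir model for kon, koff, KD.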

T1 sequence (P01833 other isoform, or with tags, fused parts or gaps): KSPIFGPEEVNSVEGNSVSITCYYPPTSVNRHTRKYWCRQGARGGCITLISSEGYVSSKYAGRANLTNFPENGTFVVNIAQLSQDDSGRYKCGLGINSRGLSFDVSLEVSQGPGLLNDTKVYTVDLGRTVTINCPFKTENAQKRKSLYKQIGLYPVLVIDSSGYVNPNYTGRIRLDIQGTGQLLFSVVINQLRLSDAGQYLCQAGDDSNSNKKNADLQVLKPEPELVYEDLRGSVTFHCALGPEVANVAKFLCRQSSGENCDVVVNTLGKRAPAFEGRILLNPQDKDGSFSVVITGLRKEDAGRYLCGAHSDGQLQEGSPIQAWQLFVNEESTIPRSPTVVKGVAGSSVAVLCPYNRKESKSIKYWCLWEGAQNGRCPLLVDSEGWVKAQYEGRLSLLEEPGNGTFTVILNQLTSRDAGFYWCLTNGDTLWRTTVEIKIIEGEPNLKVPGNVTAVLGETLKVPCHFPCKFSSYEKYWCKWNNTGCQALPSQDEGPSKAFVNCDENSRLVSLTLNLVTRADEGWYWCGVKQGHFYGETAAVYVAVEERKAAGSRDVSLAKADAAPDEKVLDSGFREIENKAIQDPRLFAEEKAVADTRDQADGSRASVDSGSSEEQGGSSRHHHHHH

Compared with B1, B2 is 1.5-fold higher in Kd: 2.95 nM for the first, 4.48 nM for the second.

Compared with B3, B4 is 5-fold higher in Kd: 5.77 nM for the first, 28.6 nM for the second. The first binds more tightly here.

Going from B5 to B6, the Kd rises from 1.05 nM to 29 nM (28-fold).

First: B7
Second: B8
The Kd of the first is 3.5-fold higher: 58.7 nM for the first, 16.6 nM for the second. The second binds more tightly here.

First: B9
Second: B10
The Kd of the first is 53-fold lower: 0.681 nM for the first, 35.8 nM for the second. The first binds more tightly here.

B11 and B12 are within 1.5-fold of each other in Kd: 7.9 nM for the first, 6.91 nM for the second.

Binder B13 has a Kd of 8.46 nM.

target: T2, cynomolgus monkey pIgR extracellular domain (cynomolgus monkey, UniProt A0A2K5WMU9 19-638); test: SPR, VHH captured by anti-Fc, ECD analyte
T2 construct: extracellular domain
Summary of the method: as §1

T2 sequence (A0A2K5WMU9 entry or part of it): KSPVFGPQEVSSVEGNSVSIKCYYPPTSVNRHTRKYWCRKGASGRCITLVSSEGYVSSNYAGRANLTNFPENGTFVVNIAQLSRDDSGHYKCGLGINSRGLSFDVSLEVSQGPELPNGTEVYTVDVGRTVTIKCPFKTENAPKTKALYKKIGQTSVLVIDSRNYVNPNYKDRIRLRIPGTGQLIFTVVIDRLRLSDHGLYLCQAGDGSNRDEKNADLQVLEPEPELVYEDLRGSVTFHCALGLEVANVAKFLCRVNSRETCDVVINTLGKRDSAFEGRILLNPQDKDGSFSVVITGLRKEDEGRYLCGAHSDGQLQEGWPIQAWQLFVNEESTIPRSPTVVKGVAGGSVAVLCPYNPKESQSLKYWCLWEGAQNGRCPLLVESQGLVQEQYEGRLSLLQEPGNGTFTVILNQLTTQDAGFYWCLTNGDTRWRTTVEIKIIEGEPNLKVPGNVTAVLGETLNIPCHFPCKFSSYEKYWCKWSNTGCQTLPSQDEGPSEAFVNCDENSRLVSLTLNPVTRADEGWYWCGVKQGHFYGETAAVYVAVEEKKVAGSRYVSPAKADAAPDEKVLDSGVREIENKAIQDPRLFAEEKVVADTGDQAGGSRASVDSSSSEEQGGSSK

B1 and B2 are within 1.5-fold of each other in Kd: 6.14 nM for the first, 6.54 nM for the second.

B3 and B4 are within 1.5-fold of each other in Kd: 10 nM for the first, 10.1 nM for the second.

Compared with B5, B6 is 2-fold lower in Kd: 219 nM for the first, 112 nM for the second.

First: B7
Second: B8
The Kd of the first is 4.4-fold higher: 138 nM for the first, 31.5 nM for the second. The second binds more tightly here.

Going from B9 to B10, the Kd rises from 0.353 nM to 28 nM (79-fold). The first binds more tightly here.

B11 and B12 are within 1.5-fold of each other in Kd: 116 nM for the first, 123 nM for the second.

Work on B13 yielded a Kd of 111 nM.

target: T3, mouse pIgR extracellular domain (ECD) (mouse, UniProt O70570 19-645); test: SPR, VHH captured by anti-Fc, ECD analyte
T3 construct: Bought from R&D Systems (Cat 2800-PG-050); also called mpIgR ECD
T3 sequence: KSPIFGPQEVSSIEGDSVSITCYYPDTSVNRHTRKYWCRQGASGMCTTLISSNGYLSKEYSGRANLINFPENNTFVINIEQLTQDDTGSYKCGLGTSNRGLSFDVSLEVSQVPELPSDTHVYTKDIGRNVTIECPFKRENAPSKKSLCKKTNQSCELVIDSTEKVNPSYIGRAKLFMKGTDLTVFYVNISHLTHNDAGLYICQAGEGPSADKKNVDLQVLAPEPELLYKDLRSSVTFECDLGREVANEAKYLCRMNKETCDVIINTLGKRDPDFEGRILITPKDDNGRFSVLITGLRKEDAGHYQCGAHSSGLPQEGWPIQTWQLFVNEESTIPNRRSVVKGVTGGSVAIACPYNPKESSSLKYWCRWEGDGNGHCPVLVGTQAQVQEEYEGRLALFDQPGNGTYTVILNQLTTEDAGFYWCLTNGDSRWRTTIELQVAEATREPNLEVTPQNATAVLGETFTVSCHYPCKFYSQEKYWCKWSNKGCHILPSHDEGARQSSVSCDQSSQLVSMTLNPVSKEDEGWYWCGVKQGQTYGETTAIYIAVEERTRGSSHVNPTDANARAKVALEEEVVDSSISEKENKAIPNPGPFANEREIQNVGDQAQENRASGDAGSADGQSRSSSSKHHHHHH
Summary of the method: as §1

Compared with B1, B2 is 10-fold higher in Kd: 10.4 nM for the first, 107 nM for the second. The first binds more tightly here.

Compared with B3, B4 is 1.6-fold higher in Kd: 5.71 nM for the first, 8.93 nM for the second.

Going from B5 to B6, the Kd falls from 586 nM to 2.26 nM (260-fold).

B7 and B8 are within 1.5-fold of each other in Kd: 3.48 nM for the first, 4.32 nM for the second.

First: B9
Second: B10
The Kd of the first is 30-fold lower: 0.301 nM for the first, 9.03 nM for the second. The first binds more tightly here.

B11 and B12 are within 1.5-fold of each other in Kd: 13.9 nM for the first, 12.8 nM for the second.

For B13, the Kd was 14.8 nM.

target: T4, rat pIgR extracellular domain (rat, UniProt P15083 19-643); test: SPR, VHH captured by anti-Fc, ECD analyte
T4 construct: extracellular domain
T4 sequence (looked up): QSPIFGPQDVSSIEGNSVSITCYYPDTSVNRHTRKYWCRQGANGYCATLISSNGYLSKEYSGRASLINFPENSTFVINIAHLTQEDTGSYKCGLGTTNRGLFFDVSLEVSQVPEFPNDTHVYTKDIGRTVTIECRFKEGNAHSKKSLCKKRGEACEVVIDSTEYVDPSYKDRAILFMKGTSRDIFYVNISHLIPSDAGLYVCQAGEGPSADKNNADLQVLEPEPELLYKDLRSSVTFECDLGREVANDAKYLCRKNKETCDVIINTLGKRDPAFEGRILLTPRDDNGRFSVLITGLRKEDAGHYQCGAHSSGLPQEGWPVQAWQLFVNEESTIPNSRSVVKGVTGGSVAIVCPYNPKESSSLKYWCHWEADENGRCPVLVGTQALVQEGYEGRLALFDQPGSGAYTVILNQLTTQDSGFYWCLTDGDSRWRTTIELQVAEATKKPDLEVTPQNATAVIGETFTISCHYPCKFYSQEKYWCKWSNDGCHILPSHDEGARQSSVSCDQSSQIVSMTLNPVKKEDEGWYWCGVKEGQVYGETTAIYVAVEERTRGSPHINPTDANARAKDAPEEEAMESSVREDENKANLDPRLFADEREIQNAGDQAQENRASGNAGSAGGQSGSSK
Summary of the method: as §1

B1 and B2 are within 1.5-fold of each other in Kd: 24.9 nM for the first, 18.2 nM for the second.

Going from B3 to B4, the Kd rises from 4.27 nM to 6.85 nM (1.6-fold). The first binds more tightly here.

Going from B5 to B6, the Kd falls from 116 nM to 9.23 nM (13-fold). The second binds more tightly here.

Compared with B7, B8 is 2.5-fold lower in Kd: 8.51 nM for the first, 3.44 nM for the second.

Compared with B9, B10 is 38-fold higher in Kd: 0.234 nM for the first, 8.9 nM for the second. The first binds more tightly here.

Compared with B11, B12 is 1.8-fold lower in Kd: 33.3 nM for the first, 18.1 nM for the second. The second binds more tightly here.

B13 showed a Kd of 33.2 nM.
